The assay addresses protein A (UniProt P38507). Put plainly: Heat/Cool phage ELISA: phage-displayed VH, 80 C 10 min then 4 C 10 min, captured on coated protein A; signal as % of untreated sample. Background: In an ELISA, binding on a coated surface is turned into a signal by an enzyme label.

The values that follow come from patent US20160145328A1.

On to DP47 VH SY_31/32-DE, for which the Retained binding to protein A (%) was 50%.
